According to article PMC3590144, “Determination of the Structure of the Catabolic N-Succinylornithine Transaminase (AstC) from Escherichia coli” (PLoS ONE, 2013):

How the values were obtained:
[1] = target: the molecule itself; experiment: crystal structure; apo-AstC without PLP; space group R32:h, 2 molecules in the asymmetric unit, 2.75 Å; grown in 1.4 M sodium malonate pH 7 at 20 °C; dimers formed by crystallographic symmetry
[2] = target: the molecule itself; experiment: dynamic light scattering; in solution; hydrodynamic radius mean value 4.5 nm, about 100 kDa; data not shown

Protein | binding result [1] | stoichiometry N [2]
apo-AstC, N-succinylornithine transaminase from Escherichia coli, without PLP (enzyme, E. coli (BL21 DE3), UniProt P77581 1-406, looked up, AstC (acetyl/succinylornithine aminotransferase) of E. coli; native, untagged protein, no plasmid or clone used; electron density from Gln3 to Ser402, the last 4 residues (Arg-Gly-Ser-Ser) not modelled, which implies 406 residues; Endogenous protein of strain BL21 (DE3); also called apo-protein; apo-enzyme; source: endogenous, E. coli BL21 (DE3) grown in 2xYT, purified (Ni-NTA, size exclusion …)) MSQPITRENFDEWMIPVYAPAPFIPVRGEGSRLWDQQGKEYIDFAGGIAVNALGHAHPELREALNEQASKFWHTGNGYTNEPVLRLAKKLIDATFADRVFFCNSGAEANEAALKLARKFAHDRYGSHKSGIVAFKNAFHGRTLFTVSAGGQPAYSQDFAPLPADIRHAAYNDINSASALIDDSTCAVIVEPIQGEGGVVPASNAFLQGLRELCNRHNALLIFDEVQTGVGRTGELYAYMHYGVTPDLLTTAKALGGGFPVGALLATEECARVMTVGTHGTTYGGNPLASAVAGKVLELINTPEMLNGVKQRHDWFVERLNTINHRYGLFSEVRGLGLLIGCVLNADYAGQAKQISQEAAKAGVMVLIAGGNVVRFAPALNVSEEEVTTGLDRFAAACEHFVSRGSS | binds | 
holo-AstC, N-succinylornithine transaminase from Escherichia coli reconstituted with PLP (enzyme, E. coli (BL21 DE3), UniProt P77581 1-406, looked up, PLP bound to Lys252 in a Schiff base (aldimine), AstC (acetyl/succinylornithine aminotransferase) of E. coli; native, untagged protein, no plasmid or clone used; the last 4 residues (Arg-Gly-Ser-Ser) after Ser402 not modelled, which implies 406 residues; Same polypeptide as m1, with the cofactor PLP added; Endogenous protein of strain BL21 (DE3); also called holo-enzyme; PLP/enzyme complex; source: endogenous, E. coli BL21 (DE3), purified …) MSQPITRENFDEWMIPVYAPAPFIPVRGEGSRLWDQQGKEYIDFAGGIAVNALGHAHPELREALNEQASKFWHTGNGYTNEPVLRLAKKLIDATFADRVFFCNSGAEANEAALKLARKFAHDRYGSHKSGIVAFKNAFHGRTLFTVSAGGQPAYSQDFAPLPADIRHAAYNDINSASALIDDSTCAVIVEPIQGEGGVVPASNAFLQGLRELCNRHNALLIFDEVQTGVGRTGELYAYMHYGVTPDLLTTAKALGGGFPVGALLATEECARVMTVGTHGTTYGGNPLASAVAGKVLELINTPEMLNGVKQRHDWFVERLNTINHRYGLFSEVRGLGLLIGCVLNADYAGQAKQISQEAAKAGVMVLIAGGNVVRFAPALNVSEEEVTTGLDRFAAACEHFVSRGSS |  | 2
